{"source": "IntAct's records for PubMed 35512704", "parents": {"B1": {"name": "Speckle-type POZ protein (Homo sapiens), O43791 (parent)", "chain": "MSRVPSPPPPAEMSSGPVAESWCYTQIKVVKFSYMWTINNFSFCREEMGEVIKSSTFSSGANDKLKWCLRVNPKGLDEESKDYLSLYLLLVSCPKSEVRAKFKFSILNAKGEETKAMESQRAYRFVQGKDWGFKKFIRRDFLLDEANGLLPDDKLTLFCEVSVVQDSVNISGQNTMNMVKVPECRLADELGGLWENSRFTDCCLCVAGQEFQAHKAILAARSPVFSAMFEHEMEESKKNRVEINDVEPEVFKEMMCFIYTGKAPNLDKMADDLLAAADKYALERLKVMCEDALCSNLSVENAAEILILADLHSADQLKTQAVDFINYHASDVLETSGWKSMVVSHPHLVAEAYRSLASAQCPFLGPPRKRLKQS", "partner": "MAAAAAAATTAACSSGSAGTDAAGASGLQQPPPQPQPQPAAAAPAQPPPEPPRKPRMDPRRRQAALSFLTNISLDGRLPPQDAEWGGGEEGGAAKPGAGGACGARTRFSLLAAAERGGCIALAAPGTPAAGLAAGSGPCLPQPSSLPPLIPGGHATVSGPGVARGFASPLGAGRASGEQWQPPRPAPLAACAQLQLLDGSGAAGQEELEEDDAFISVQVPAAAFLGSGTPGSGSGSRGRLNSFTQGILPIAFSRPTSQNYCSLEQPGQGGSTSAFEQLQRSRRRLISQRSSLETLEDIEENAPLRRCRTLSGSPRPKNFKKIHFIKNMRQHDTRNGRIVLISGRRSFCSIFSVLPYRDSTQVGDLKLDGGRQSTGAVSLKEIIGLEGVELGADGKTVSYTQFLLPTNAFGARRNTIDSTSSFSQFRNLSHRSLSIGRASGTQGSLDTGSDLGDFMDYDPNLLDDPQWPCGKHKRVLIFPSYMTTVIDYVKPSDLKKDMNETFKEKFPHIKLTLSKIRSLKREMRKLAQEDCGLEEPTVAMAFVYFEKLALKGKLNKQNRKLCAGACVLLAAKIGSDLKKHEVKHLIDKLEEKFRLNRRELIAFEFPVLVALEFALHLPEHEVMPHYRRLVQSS"}, "B2": {"name": "Mothers against decapentaplegic homolog 4 (Homo sapiens), Q13485 (parent)", "chain": "MDNMSITNTPTSNDACLSIVHSLMCHRQGGESETFAKRAIESLVKKLKEKKDELDSLITAITTNGAHPSKCVTIQRTLDGRLQVAGRKGFPHVIYARLWRWPDLHKNELKHVKYCQYAFDLKCDSVCVNPYHYERVVSPGIDLSGLTLQSNAPSSMMVKDEYVHDFEGQPSLSTEGHSIQTIQHPPSNRASTETYSTPALLAPSESNATSTANFPNIPVASTSQPASILGGSHSEGLLQIASGPQPGQQQNGFTGQPATYHHNSTTTWTGSRTAPYTPNLPHHQNGHLQHHPPMPPHPGHYWPVHNELAFQPPISNHPAPEYWCSIAYFEMDVQVGETFKVPSSCPIVTVDGYVDPSGGDRFCLGQLSNVHRTEAIERARLHIGKGVQLECKGEGDVWVRCLSDHAVFVQSYYLDREAGRAPGDAVHKIYPSAYIKVFDLRQCHRQMQQQAATAQAAAAAQAAAVAGNIPGPGSVGGIAPAISLSAAAGIGVDDLRRLCILRMSFVKGWGPDYPRQSIKETPCWIEIHLHRALQLLDEVLHTMPIADPQPLD", "partner": "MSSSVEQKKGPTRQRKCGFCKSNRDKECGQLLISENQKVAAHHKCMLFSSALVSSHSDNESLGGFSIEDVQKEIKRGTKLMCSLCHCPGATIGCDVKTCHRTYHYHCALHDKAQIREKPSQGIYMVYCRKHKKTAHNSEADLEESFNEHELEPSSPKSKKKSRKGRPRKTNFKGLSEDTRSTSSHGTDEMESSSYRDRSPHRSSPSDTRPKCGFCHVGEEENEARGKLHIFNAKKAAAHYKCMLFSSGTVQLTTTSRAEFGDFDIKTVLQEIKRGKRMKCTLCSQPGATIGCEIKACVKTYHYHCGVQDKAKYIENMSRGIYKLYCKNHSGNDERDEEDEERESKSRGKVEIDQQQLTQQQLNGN"}, "B3": {"name": "Mothers against decapentaplegic homolog 4 (Homo sapiens), Q13485 (parent)", "chain": "B2 chain", "partner": "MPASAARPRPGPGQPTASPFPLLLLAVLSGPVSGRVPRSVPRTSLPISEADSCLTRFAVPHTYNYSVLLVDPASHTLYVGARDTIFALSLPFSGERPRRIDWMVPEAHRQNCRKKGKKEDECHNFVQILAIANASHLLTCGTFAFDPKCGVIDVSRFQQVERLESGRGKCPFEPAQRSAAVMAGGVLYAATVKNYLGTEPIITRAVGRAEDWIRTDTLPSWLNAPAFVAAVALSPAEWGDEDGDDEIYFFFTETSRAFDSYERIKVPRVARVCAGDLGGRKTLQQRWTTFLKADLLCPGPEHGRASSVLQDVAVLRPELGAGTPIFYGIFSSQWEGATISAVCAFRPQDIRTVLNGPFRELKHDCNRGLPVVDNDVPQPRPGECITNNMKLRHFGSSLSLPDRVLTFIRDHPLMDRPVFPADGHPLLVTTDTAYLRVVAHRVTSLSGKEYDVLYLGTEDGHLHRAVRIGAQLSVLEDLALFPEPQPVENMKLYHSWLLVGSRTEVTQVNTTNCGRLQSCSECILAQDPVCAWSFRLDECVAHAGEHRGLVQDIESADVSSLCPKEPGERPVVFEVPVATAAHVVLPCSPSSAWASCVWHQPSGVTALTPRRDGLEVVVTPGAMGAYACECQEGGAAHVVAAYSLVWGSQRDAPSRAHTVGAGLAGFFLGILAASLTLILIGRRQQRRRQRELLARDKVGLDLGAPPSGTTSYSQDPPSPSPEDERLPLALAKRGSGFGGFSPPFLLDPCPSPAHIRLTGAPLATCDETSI"}, "B4": {"name": "Mothers against decapentaplegic homolog 4 (Homo sapiens), Q13485 (parent)", "chain": "B2 chain", "partner": "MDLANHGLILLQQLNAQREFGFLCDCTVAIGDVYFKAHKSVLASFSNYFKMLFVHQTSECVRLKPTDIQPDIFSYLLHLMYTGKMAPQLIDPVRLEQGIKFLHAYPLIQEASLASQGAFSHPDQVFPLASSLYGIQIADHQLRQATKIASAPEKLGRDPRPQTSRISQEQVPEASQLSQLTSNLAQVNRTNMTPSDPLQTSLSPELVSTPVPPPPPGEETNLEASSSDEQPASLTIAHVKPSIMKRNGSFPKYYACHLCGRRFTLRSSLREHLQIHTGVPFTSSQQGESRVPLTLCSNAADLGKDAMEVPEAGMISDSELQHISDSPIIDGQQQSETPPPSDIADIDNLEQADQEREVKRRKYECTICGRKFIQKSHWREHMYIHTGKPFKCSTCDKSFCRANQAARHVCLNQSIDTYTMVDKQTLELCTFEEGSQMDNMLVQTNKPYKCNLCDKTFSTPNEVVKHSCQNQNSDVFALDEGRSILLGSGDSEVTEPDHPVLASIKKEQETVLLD"}, "B5": {"name": "Speckle-type POZ protein (Homo sapiens), O43791 (parent)", "chain": "B1 chain", "partner": "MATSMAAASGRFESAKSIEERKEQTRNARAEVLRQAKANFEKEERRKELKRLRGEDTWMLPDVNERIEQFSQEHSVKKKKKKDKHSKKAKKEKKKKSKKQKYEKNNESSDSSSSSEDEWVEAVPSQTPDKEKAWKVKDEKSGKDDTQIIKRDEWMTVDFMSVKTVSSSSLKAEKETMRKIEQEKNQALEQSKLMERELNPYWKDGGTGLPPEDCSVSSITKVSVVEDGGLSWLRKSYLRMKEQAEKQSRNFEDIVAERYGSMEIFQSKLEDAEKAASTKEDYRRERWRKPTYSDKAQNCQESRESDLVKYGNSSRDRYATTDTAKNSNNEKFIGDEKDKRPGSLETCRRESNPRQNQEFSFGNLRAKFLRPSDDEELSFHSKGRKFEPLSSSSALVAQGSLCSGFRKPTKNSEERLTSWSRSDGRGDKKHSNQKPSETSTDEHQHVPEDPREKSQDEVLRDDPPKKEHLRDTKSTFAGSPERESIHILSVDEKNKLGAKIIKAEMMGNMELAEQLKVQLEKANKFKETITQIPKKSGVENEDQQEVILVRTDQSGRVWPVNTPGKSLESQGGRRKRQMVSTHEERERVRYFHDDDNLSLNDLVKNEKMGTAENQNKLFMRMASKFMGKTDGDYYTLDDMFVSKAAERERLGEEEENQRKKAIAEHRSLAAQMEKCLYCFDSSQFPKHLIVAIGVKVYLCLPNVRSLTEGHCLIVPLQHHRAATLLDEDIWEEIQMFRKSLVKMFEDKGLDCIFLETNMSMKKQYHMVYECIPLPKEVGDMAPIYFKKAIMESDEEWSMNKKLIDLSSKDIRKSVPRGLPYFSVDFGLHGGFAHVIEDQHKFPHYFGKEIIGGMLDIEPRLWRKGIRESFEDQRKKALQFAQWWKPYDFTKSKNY"}}, "data": [{"variants_of": "B1", "conditions": "with cabl1_human CABLES1, Q8TDN4", "values": [{"variant": "Y87C", "effect of a mutation on the interaction": "with no effect"}]}, {"variants_of": "B1", "conditions": "with cabl1_human CABLES1, Q8TDN4", "remark": "another data set of the same source", "values": [{"variant": "F102C", "effect of a mutation on the interaction": "with no effect"}]}, {"variants_of": "B2", "conditions": "with phf6_human PHF6, Q8IWS0", "values": [{"variant": "R361C", "effect of a mutation on the interaction": "with no effect"}]}, {"variants_of": "B3", "conditions": "with sem4f_human SEMA4F", "values": [{"variant": "R361C", "effect of a mutation on the interaction": "with no effect"}]}, {"variants_of": "B3", "conditions": "with sem4f_human SEMA4F", "remark": "another data set of the same source", "values": [{"variant": "R361H", "effect of a mutation on the interaction": "with no effect"}]}, {"variants_of": "B3", "conditions": "with sem4f_human SEMA4F", "remark": "another data set of the same source", "values": [{"variant": "G386D", "effect of a mutation on the interaction": "with no effect"}]}, {"variants_of": "B3", "conditions": "with sem4f_human SEMA4F", "remark": "another data set of the same source", "values": [{"variant": "G386D", "effect of a mutation on the interaction": "causing an interaction"}]}, {"variants_of": "B4", "conditions": "with zbtb2_human ZBTB2, Q8N680", "values": [{"variant": "R361H", "effect of a mutation on the interaction": "with no effect"}]}, {"variants_of": "B5", "conditions": "with CWF19L2, Q2TBE0", "values": [{"variant": "F102C", "effect of a mutation on the interaction": "with no effect"}]}, {"variants_of": "B5", "conditions": "with CWF19L2, Q2TBE0", "remark": "another data set of the same source", "values": [{"variant": "Y87C", "effect of a mutation on the interaction": "with no effect"}]}, {"variants_of": "B5", "conditions": "with CWF19L2, Q2TBE0", "remark": "another data set of the same source", "values": [{"variant": "F133V", "effect of a mutation on the interaction": "with no effect"}]}, {"variants_of": "B5", "conditions": "with CWF19L2, Q2TBE0", "remark": "another data set of the same source", "values": [{"variant": "F133L", "effect of a mutation on the interaction": "with no effect"}]}]}
